The source of these data is paper PMC11371196, “PLASMODESMATA-LOCATED PROTEIN 6 regulates plasmodesmal function in Arabidopsis vasculature” (The Plant Cell, 2024).

Where no end group is shown, it is not given here.

In one test the target is free MBP (UniProt P0AEX9 27-396 = MBP). Description: pull-down; 1 μg biotinylated peptide with 1 μg MBP or MBP fusion protein in 300 μL binding buffer (50 mM Tris pH 7.5, 150 mM NaCl, 0.05% NP-40), 4 °C overnight; Dynabeads MyOne Streptavidin C1; immunoblot with MBP antibody. The note with it: both partners purified.
In test [1] the target is T1, maltose binding protein fused SUS6 (Arabidopsis thaliana, UniProt Q9FX32 1-942).
T1 construct: SUCROSE SYNTHASE 6 (SUS6), Arabidopsis thaliana, At1G73370; also called MBP-SUS6; pET-MBP-SUS6; source: E. coli Rosetta, purified (amylose resin); not shown: MBP, N-terminal, kept
The test is described as above. Particulars: both partners purified.

T1 sequence (Q9FX32 whole entry, the tested form may be a part): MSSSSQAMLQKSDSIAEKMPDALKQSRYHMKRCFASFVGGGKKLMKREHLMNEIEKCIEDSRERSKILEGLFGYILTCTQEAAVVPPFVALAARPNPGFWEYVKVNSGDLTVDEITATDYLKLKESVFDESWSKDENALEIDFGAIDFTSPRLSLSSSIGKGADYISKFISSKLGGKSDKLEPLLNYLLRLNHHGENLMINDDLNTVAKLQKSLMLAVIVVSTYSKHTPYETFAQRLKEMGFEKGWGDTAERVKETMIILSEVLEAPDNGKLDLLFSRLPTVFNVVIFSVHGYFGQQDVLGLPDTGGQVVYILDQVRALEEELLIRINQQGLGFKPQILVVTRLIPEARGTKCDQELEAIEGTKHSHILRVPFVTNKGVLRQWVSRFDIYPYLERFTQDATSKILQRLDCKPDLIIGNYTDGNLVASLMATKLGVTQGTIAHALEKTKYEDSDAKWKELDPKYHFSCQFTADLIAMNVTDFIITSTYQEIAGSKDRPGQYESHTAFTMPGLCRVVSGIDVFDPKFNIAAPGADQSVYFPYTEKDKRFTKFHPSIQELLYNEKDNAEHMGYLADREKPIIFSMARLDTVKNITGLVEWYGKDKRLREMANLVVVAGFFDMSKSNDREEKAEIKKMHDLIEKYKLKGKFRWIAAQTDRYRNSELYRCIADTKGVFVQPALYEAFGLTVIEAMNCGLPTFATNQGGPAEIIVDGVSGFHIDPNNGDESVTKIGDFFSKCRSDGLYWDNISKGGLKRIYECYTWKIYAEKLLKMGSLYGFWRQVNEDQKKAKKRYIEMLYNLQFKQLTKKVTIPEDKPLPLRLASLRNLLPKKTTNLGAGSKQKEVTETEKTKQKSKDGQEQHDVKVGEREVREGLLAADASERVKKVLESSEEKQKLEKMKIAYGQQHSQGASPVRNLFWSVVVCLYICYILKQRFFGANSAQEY

B1: biotinylated C-terminal tail of PDLP7 (peptide)
peptide: RGVCSRGGDFSILHSFTLI
modifications: also: biotin (position not given here)
notes: C-terminal tail of PDLP7, Arabidopsis thaliana, At5G37660; also called PDLP7-CT-biotin; source: synthetic peptide, bought: PEPTIDE 2.0
B1: the binding result with free MBP was “binds”.

B2: biotinylated C-terminal tail of PDLP5 (peptide)
peptide: GKCCRKLQDEKWCK
modifications: cysteine pairing not given here; also: biotin (position not given here)
notes: C-terminal tail of PDLP5, Arabidopsis thaliana, At1g70690; also called PDLP5-CT-biotin; source: synthetic peptide, bought: PEPTIDE 2.0
B2: the binding result in test [1] was “binds”.

B3: biotinylated C-terminal tail of PDLP6 (peptide)
peptide: AKSCERGKGGK
modifications: also: biotin (position not given here)
notes: C-terminal tail of PDLP6, which faces the cytoplasmic sleeve; Arabidopsis thaliana, At2g01660; also called PDLP6-CT-biotin; source: synthetic peptide, bought: PEPTIDE 2.0
Take B3: in test [1], the binding result is given as “binds”.
